Columns and labels:
[1] = target: AtFN3K C32A/C236A/C196A (Arabidopsis thaliana); test: SEC
[2] = target: AtFN3K C32A/C236A/C196A (Arabidopsis thaliana); test: AUC

stoichiometry N [1]: 2 | stoichiometry N [2]: 2
Substance: AtFN3K C32A/C236A/C196A (enzyme)
